Test results published in patent US10022453B2 (BAYER PHARMA AKTIENGESELLSCHAFT, priority 2013, dated 2018).

B1: 136.1(TPP-2194): comparative anti-TWEAKR antibody; variable domains from WO2009/020933, constant region added, "resulting in full-length IgGs" (protein)
light: DIVLTQSPASLTVSLGQRATISCRASQSVSTSSYSYMQWYQQRPGQPPKLLIKYATNLDSGVPARFSGSGSGTDFTLNIHPVEEEDAATYYCQHSWEIPYTFGGGTKLEIKRADAAPTVSIFPPSSEQLTSGGASVVCFLNNFYPKDINVKWKIDGSERQNGVLNSWTDQDSKDSTYSMSSTLTLTKDEYERHNSYTCEATHKTSTSPIVKSFNRNEC
heavy: EVKLEESGGGLVQPGGSMKLSCVASGFTFNNYWMSWVRQSPEKGLEWLAEIRLKSDNYATHYAESVKGKFTISRDDSKSRLYLQMNNLRAENTGIYYCTGGFADYFDYWGQGTTLTVSSAKTTAPSVYPLAPVCGDTTGSSVTLGCLVKGYFPEPVTLTWNSGSLSSGVHTFPAVLQSDLYTLSSSVTVTSSTWPSQSITCNVAHPASSTKVDKKIEPRGPTIKPCPPCKCPAPNLLGGPSVFIFPPKIKDVLMISLSPIVTCVVVDVSEDDPDVQISWFVNNVEVHTAQTQTHREDYNSTLRVVSALPIQHQDWMSGKEFKCKVNNKDLPAPIERTISKPKGSVRAPQVYVLPPPEEEMTKKQVTLTCMVTDFMPEDIYVEWTNNGKTELNYKNTEPVLDSDGSYFMYSKLRVEKKNWVERNSYSCSVVHEGLHNHHTTKSFSRTPG
modifications: Mus Musculus
B2: P3G5(TPP-2195): comparative anti-TWEAKR antibody; variable domains from WO2009/140177, constant region added, "resulting in full-length IgGs" (protein)
light: DIVLTQSPASLAVSLGQRATISCRANKSVSTSSYSYMHWYQQKPGQPPKLLIKYASNLESGVPARFSGSGSGTDFILNIHPVEEEDAATYYCQHSRELPFTFGSGTKLEIKRADAAPTVSIFPPSSEQLTSGGASVVCFLNNFYPKDINVKWKIDGSERQNGVLNSWTDQDSKDSTYSMSSTLTLTKDEYERHNSYTCEATHKTSTSPIVKSFNRNEC
heavy: QVQLQQSGPEVVRPGVSVKISCKGSGYTFTDYGIHWVKQSHAKSLEWIGVISTYNGYTNYNQKFKGKATMTVDKSSSTAYMELARLTSEDSAIYYCARAYYGNLYYAMDYWGQGTSVTVSSAKTTAPSVYPLAPVCGDTTGSSVTLGCLVKGYFPEPVTLTWNSGSLSSGVHTFPAVLQSDLYTLSSSVTVTSSTWPSQSITCNVAHPASSTKVDKKIEPRGPTIKPCPPCKCPAPNLLGGPSVFIFPPKIKDVLMISLSPIVTCVVVDVSEDDPDVQISWFVNNVEVHTAQTQTHREDYNSTLRVVSALPIQHQDWMSGKEFKCKVNNKDLPAPIERTISKPKGSVRAPQVYVLPPPEEEMTKKQVTLTCMVTDFMPEDIYVEWTNNGKTELNYKNTEPVLDSDGSYFMYSKLRVEKKNWVERNSYSCSVVHEGLHNHHTTKSFSRTPG
modifications: Mus Musculus

Assays:
[1] = target: T1, recombinant human TWEAKR protein (TPP-2305) (Homo sapiens, UniProt Q9NP84); assay: Binding affinities by Biacore analysis; conditions: monovalent
T1 construct: purchased Fitzgerald Inc 30R-AT080
Description: Determination of Binding Affinities by Biacore Analysis:
Binding affinities of anti-TWEAKR antibodies were examined using surface plasmon resonance analysis on a Biacore T100 instrument (GE Healthcare Biacore, Inc.). The antibodies were immobilized on a CM5 sensor chip using an indirect capture reagent, anti-human IgG(Fc). […] Anti-TWEAKR antibodies were injected at a concentration of 10 μg/ml at […] for 10 sec.
Sensorgrams were generated after in-line reference cell correction, followed by subtraction of the buffer sample. The dissociation constant (KD) was calculated based on the ratio of association (kon) and dissociation (koff) constants, obtained by fitting sensorgrams using a 1:1 first order binding model.

[2] = target: T2, TWEAKR-Fc WT (TPP-599) (Homo sapiens, UniProt Q9NP84); assay: ELISA, effect of TWEAKR-Fc muteins on antibody binding; conditions: 62 ng/ml TWEAKR-Fc coated, biotinylated IgG from 100 nM
T2 construct: hTNFRSF12 amino acids a28-80-hIgG1-Fc
Description: (§1) Effect of TWEAKR-Fc Muteins on the Antibody Affinity
(§2) To this end, the full-length ectodomain (amino acids 28-80) having the individual amino acid substitutions below were expressed and purified as Fc fusion proteins: T33Q; S40R; W42A; M50A; R56P; H60K; L65Q.
(§3) Detection was carried out using streptavidin-HRP and Amplex Red.
(§4) The dose-reaction data were fitted and the IC50s were determined.

[3] = target: T3, TWEAKR-Fc mutein H60K (Homo sapiens, UniProt Q9NP84, H60K); assay: as above; conditions: 62 ng/ml mutein coated, biotinylated IgG from 100 nM
T3 construct: the full-length ectodomain (amino acids 28-80); made in house
Description: as §1, §2, §3, §4

[4] = target: T4, TWEAKR-Fc mutein L65Q (Homo sapiens, UniProt Q9NP84, L65Q); assay: as above; conditions: 62 ng/ml mutein coated, biotinylated IgG from 100 nM
T4 construct: the full-length ectodomain (amino acids 28-80); made in house
Description: as §1, §2, §3, §4

[5] = target: T5, TWEAKR-Fc mutein M50A (Homo sapiens, UniProt Q9NP84, M50A); assay: as above; conditions: 62 ng/ml mutein coated, biotinylated IgG from 100 nM
T5 construct: the full-length ectodomain (amino acids 28-80); made in house
Description: as §1, §2, §3, §4

[6] = target: T6, TWEAKR-Fc mutein R56P (Homo sapiens, UniProt Q9NP84, R56P); assay: as above; conditions: 62 ng/ml mutein coated, biotinylated IgG from 100 nM
T6 construct: the full-length ectodomain (amino acids 28-80); made in house
Description: as §1, §2, §3, §4

[7] = target: T7, TWEAKR-Fc mutein S40R (Homo sapiens, UniProt Q9NP84, S40R); assay: as above; conditions: 62 ng/ml mutein coated, biotinylated IgG from 100 nM
T7 construct: the full-length ectodomain (amino acids 28-80); made in house
Description: as §1, §2, §3, §4

[8] = target: T8, TWEAKR-Fc mutein T33Q (Homo sapiens, UniProt Q9NP84, T33Q); assay: as above; conditions: 62 ng/ml mutein coated, biotinylated IgG from 100 nM
T8 construct: the full-length ectodomain (amino acids 28-80); made in house
Description: as §1, §2, §3, §4

[9] = target: T9, TWEAKR-Fc mutein W42A (Homo sapiens, UniProt Q9NP84, W42A); assay: as above; conditions: 62 ng/ml mutein coated, biotinylated IgG from 100 nM
T9 construct: the full-length ectodomain (amino acids 28-80); made in house
Description: as §1, §2, §3, §4

| Molecule | ka [1] [M⁻¹ s⁻¹] | kd [1] [s⁻¹] | IC50 [2] [nM] | IC50 [3] [nM] | IC50 [4] [nM] | IC50 [5] [nM] | IC50 [6] [nM] | IC50 [7] [nM] | IC50 [8] [nM] | IC50 [9] [nM] |
| --- | --- | --- | --- | --- | --- | --- | --- | --- | --- | --- |
| B1 | 3.84e+07 | 0.0324 | 0.001 to 0.15 | 0.001 to 0.15 | 0.001 to 0.15 | 0.001 to 0.15 | > 50 | 0.001 to 0.15 | 0.001 to 0.15 | > 50 |
| B2 | 2.31e+06 | 0.00122 | 0.001 to 0.15 | 0.001 to 0.15 | 0.001 to 0.15 | 0.001 to 0.15 | 0.001 to 0.15 | 0.001 to 0.15 | 0.001 to 0.15 | > 50 |
